The target in assay [1] is T1, His-tagged human CD47 (human, UniProt Q08722 19-139, limits assumed).
T1 construct: loaded on HIS1K biosensors at 2.5 µg/mL; also called target antigen; not shown: His tag
Nature of the assay: BLI, His-CD47 on HIS1K sensor, antibody 15 µg/mL. The method, then: (§1) The capacity of the masking domains to inhibit binding activity of the antibody was evaluated by Bio-Layer Interferometry (BLI). […] Binding experiments were performed to evaluate the masking efficiency and the binding recovery after cleavage of the masking domains. BLI was performed on an Octet RED96 system (Sartorius). His-tagged human CD47 was diluted at 2.5 μg/mL in Kinetic Buffer (KB) (Sartorius) and loaded on HIS1K biosensors (anti-His tag antibody biosensors, Sartorius) for 300 seconds. Loaded biosensors were dipped into antibodies diluted at 15 μg/mL in KB for 300 seconds to monitor association. Then, biosensors were transferred in KB for dissociation for 60 seconds. Binding profiles were then analyzed with ForteBio Data Analysis software.

Assay [2] concerns the target T2, CD47 at the surface of Peak cells (human, UniProt Q08722 19-323).
T2 construct: whole, on cells; also called cell surface CD47
Put plainly: flow cytometry, Peak cells. As for the experimental part: (§2) Binding activity of antibody-cytokine/receptor fusions before and after cleavage was also evaluated by flow cytometry. Peak cells derived from HEK 293 which are human cells expressing CD47 were used to evaluate masking efficacy and binding recovery to CD47 by flow cytometry. Peak cells were diluted in cold FACS buffer (PBS, 2% BSA) to 1.2×10⁶ cells/mL. 3×10⁵ cells/well were added in a 96 well V-bottom plate. The plate was then centrifugated for 5 min at 1300 rpm, 4° C. Supernatants were removed and cells were washed twice using FACS buffer. A serial dilution of antibody-cytokine/receptor fusions previously digested with MMP-9 or not digested as described above was prepared in FACS buffer. An irrelevant antibody was included. Then, 150 μL of each diluted antibody were added in corresponding well and incubated for 30 min at 4° C. Cells were washed twice with FACS buffer and 100 μL of a mouse anti human Fc-PE conjugated secondary antibody were added and the plate was incubated for 20 min at 4° C. Cells were then washed twice with FACS buffer. Finally, 150 μL of SYTOX blue dead cell stain (ThermoFisher) diluted to 1/5000 in FACS buffer were added before detection by flow cytometry with Cytoflex (Beckman Coulter). Acquisition was performed with 10000 events for each well. Data were analyzed by FlowJo software.
(A flow cytometer gives signals particle by particle.)

The target in assay [3] is T1, His-tagged human CD47. Put plainly: BLI, His-CD47 on HIS1K sensor, after MMP-9 treatment. As for the experimental part: as §1
Background: Biolayer interferometry detects binding as a change in optical thickness at a sensor tip.

The target of assay [4] is T3, high affinity trimeric IL-2R (IL-2Rα, IL-2Rβ and IL-2Rγ) on HEK-Blue IL-2 cells (UniProt P01589 22-272; P14784 27-551; P31785 23-369).
T3 sequence (looked up) 1: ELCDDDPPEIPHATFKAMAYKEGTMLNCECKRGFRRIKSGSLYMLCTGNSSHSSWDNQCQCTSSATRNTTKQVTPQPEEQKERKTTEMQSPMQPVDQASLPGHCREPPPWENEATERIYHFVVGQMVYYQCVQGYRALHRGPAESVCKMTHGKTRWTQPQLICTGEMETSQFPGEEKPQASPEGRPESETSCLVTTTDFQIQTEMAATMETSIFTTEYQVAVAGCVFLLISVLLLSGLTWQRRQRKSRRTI
T3 sequence (looked up) 2: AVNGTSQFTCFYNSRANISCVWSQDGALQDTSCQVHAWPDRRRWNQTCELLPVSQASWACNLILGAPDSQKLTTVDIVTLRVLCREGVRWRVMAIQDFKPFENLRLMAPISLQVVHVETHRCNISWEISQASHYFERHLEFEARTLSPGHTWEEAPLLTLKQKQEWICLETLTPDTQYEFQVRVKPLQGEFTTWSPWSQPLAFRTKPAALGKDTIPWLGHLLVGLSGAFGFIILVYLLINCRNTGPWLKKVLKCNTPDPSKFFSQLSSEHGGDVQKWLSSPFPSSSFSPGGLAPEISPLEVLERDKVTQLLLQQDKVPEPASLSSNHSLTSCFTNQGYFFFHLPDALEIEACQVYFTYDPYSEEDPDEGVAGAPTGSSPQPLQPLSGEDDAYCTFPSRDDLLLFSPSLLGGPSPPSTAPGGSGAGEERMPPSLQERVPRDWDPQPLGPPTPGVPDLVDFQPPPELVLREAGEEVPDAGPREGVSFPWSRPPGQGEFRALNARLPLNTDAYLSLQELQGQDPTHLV
T3 sequence (looked up) 3: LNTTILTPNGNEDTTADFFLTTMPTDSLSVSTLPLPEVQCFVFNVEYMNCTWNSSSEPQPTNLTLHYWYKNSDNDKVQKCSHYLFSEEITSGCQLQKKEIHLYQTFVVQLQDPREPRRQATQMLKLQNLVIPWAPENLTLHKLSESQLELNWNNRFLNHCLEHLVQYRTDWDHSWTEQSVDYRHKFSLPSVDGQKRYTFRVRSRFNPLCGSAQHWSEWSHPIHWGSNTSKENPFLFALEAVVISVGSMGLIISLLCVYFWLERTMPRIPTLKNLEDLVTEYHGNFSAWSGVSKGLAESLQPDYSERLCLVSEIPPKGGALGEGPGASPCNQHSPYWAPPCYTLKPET
Put plainly: cell-based or functional assay.

Assay [5] deals with T4, low-moderate affinity dimeric IL-2R (IL-2Rβ and IL-2Rγ) on HEK-Blue CD122/CD132 cells (UniProt P14784 27-551; P31785 23-369, limits assumed).
T4 sequence (looked up) 1: T3 sequence (looked up) 2
T4 sequence (looked up) 2: T3 sequence (looked up) 3
Nature of the assay: cell-based or functional assay.

For assay [6], the target named is T2, CD47 at the surface of Peak cells. Nature of the assay: flow cytometry, Peak cells, after MMP-9 treatment. As for the experimental part: as §2
Assay [7] shares this target. Put plainly: flow cytometry, Peak cells, before cleavage. As for the experimental part: as §2
The target is the same in assay [8]. Put plainly: flow cytometry, Peak cells; EC50 before / EC50 after cleavage. As for the experimental part: as §2

As usually defined, the EC50 is the concentration giving half of the maximal effect. Read a high EC50 as lower potency in that assay.

B1: pNOVI V2K K91 (antibody, human IgG1, kappa)
light: DIQMTQSPSSLSASVGDRVTITCNVDQVIANWLNWYQQKPGKAPKLLIYAASSLQSGVPSRFSGSGSGTDFTLTISSLQPEDFATYYCQQMHPRAPKQFGQGTKVEIKRTVAAPSVFIFPPSDEQLKSGTASVVCLLNNFYPREAKVQWKVDNALQSGNSQESVTEQDSKDSTYSLSSTLTLSKADYEKHKVYACEVTHQGLSSPVTKSFNRGEC
heavy: not shown
notes: also called n46; construct No 46
For B1, the “Binding before cleavage (BLI)” value in the assay with His-tagged human CD47 [1] is 1.8 nm. In addition, the EC50 in assay [2] was 0.062 nM.

B2: pNOVI V2K K91_IL15_CM1_VHCH (antibody)
light: B1 light
heavy: not shown
notes: masked K91 fusion, uncleaved; 49% aggregates; also called n111; construct No 111
For B2, the “Binding before cleavage (BLI)” value with His-tagged human CD47 [1] turned out to be 1.5 nm.

B3: Construct No 651 after cleavage by MMP-9 (antibody)
light: B1 light
heavy: not shown
notes: MMP-9 digest of m22; the sample also holds the released IL-2Rα, IL-2 and IL-2Rβ; also called n651 after cleavage; not shown: remnant of CM1 and linker after MMP-9 cleavage
On to B3, for which the “Binding after cleavage (BLI)” value with His-tagged human CD47 [3] is 1.6 nm. For the same molecule, the “EC50 after cleavage IL-2, HEK Blue IL-2 αβγ reporter assay” value in assay [4] came out at 0.02 nM. Also, the “EC50 after cleavage IL-2, HEK Blue IL-2 βγ reporter assay” value in assay [5] was 0.01 nM. The molecule further had an EC50 in assay [6] of 0.7 nM.

B4: pNOVI V2K K91_IL-2 CM1_CM2_VHCH (antibody, human IgG1, kappa)
light: B1 light
heavy: not shown
notes: masked K91 fusion, uncleaved; also called n17; construct No 17
On to B4, for which the “Binding before cleavage (BLI)” value in the assay with His-tagged human CD47 [1] was determined as 2.2 nm.

B5: Construct No 41 after cleavage by MMP-9 (antibody)
light: B1 light
heavy: not shown
notes: MMP-9 digest of m8; the sample also holds the released IL-2 and IL-2Rα; also called n41 after cleavage; not shown: remnant of CM1 and linker after MMP-9 cleavage
For the molecule B5, in the assay with His-tagged human CD47 [3], the “Binding after cleavage (BLI)” value is 1.7 nm. Besides, the “EC50 after cleavage IL-2, HEK Blue IL-2 αβγ reporter assay” value in assay [4] amounted to 0.02 nM. Moreover, the “EC50 after cleavage IL-2, HEK Blue IL-2 βγ reporter assay” value in assay [5] is 0.01 nM. Besides, the EC50 in assay [6] is 0.2 nM.

B6: Construct No 880 after cleavage by MMP-9 (antibody)
light: B1 light
heavy: not shown
notes: MMP-9 digest of m34; the sample also holds the released IL-2Rγ-(GGGGS)2-IL-2 fusion (no cleavable linker between the two) and IL-2Rα; also called n880 after cleavage; not shown: remnant of CM1 and linker after MMP-9 cleavage
Take B6: the “Binding after cleavage (BLI)” value with His-tagged human CD47 [3] was 1.1 nm. In addition, in assay [4], the “EC50 after cleavage IL-2, HEK Blue IL-2 αβγ reporter assay” value was determined as 0.04 nM. The “EC50 after cleavage IL-2, HEK Blue IL-2 βγ reporter assay” value in assay [5] worked out at 0.02 nM. The same molecule gave a concentration giving a half-maximal response (EC50) in assay [6] of 2.6 nM.

B7: Construct No 870 after cleavage by MMP-9 (antibody)
light: B1 light
heavy: not shown
notes: MMP-9 digest of m33; the sample also holds the released IL-2Rγ, IL-2 and IL-2Rα; also called n870 after cleavage; not shown: remnant of CM1 and linker after MMP-9 cleavage
Turning to B7, the “Binding after cleavage (BLI)” value with His-tagged human CD47 [3] is 1.3 nm. Besides, in assay [4], the “EC50 after cleavage IL-2, HEK Blue IL-2 αβγ reporter assay” value is 0.01 nM. For the same molecule, the “EC50 after cleavage IL-2, HEK Blue IL-2 βγ reporter assay” value in assay [5] was 0.03 nM. The same molecule yielded an EC50 in assay [6] of 1.3 nM.

B8: Construct No 676 after cleavage by MMP-9 (antibody)
light: B1 light
heavy: not shown
notes: MMP-9 digest of m23; the sample also holds the released IL-2Rα-(GGGGS)2-IL-2 fusion (no cleavable linker between the two) and IL-2Rβ; also called n676 after cleavage; not shown: remnant of CM1 and linker after MMP-9 cleavage
As for B8, the “Binding after cleavage (BLI)” value with His-tagged human CD47 [3] amounted to 1.5 nm. In addition, in assay [4], the “EC50 after cleavage IL-2, HEK Blue IL-2 αβγ reporter assay” value stood at 0.04 nM. For the same molecule, the “EC50 after cleavage IL-2, HEK Blue IL-2 βγ reporter assay” value in assay [5] turned out to be 0.03 nM. The EC50 in assay [6] stood at 1 nM.

B9: pNOVI V2K K91_IL-2 CM1_VHCH (antibody, human IgG1, kappa)
light: B1 light
heavy: not shown
notes: masked K91 fusion, uncleaved; also called n13; construct No 13
As to B9, the “Binding before cleavage (BLI)” value with His-tagged human CD47 [1] came out at 2.3 nm.

B10: pNOVI V2K K33 (antibody, human IgG1, kappa)
light: DIQMTQSPSSLSASVGDRVTITCRASQSISSYLNWYQQKPGKAPKLLIYAASSLQSGVPSRFSGSGSGTDFTLTISSLQPEDFATYYCQQFHKRSPQKFGQGTKVEIKRTVAAPSVFIFPPSDEQLKSGTASVVCLLNNFYPREAKVQWKVDNALQSGNSQESVTEQDSKDSTYSLSSTLTLSKADYEKHKVYACEVTHQGLSSPVTKSFNRGEC
heavy: not shown
notes: also called n22; construct No 22
Regarding B10, the “Binding before cleavage (BLI)” value with His-tagged human CD47 [1] came out at 1.3 nm.

B11: pNOVI V2K K91_IL-2Rα CM1_VKCK_IL-2_CM1_VHCH (antibody, human IgG1, kappa)
light: ELCDDDPPEIPHATFKAMAYKEGTMLNCECKRGFRRIKSGSLYMLCTGNSSHSSWDNQCQCTSSATRNTTKQVTPQPEEQKERKTTEMQSPMQPVDQASLPGHCREPPPWENEATERIYHFVVGQMVYYQCVQGYRALHRGPAESVCKMTHGKTRWTQPQLICTGEMETSQFPGEEKPQASPEGRPESETSCLVTTTDFQIQTEMAATMETSIFTTEGGGGSVHMPLGFLGPGGSDIQMTQSPSSLSASVGDRVTITCNVDQVIANWLNWYQQKPGKAPKLLIYAASSLQSGVPSRFSGSGSGTDFTLTISSLQPEDFATYYCQQMHPRAPKQFGQGTKVEIKRTVAAPSVFIFPPSDEQLKSGTASVVCLLNNFYPREAKVQWKVDNALQSGNSQESVTEQDSKDSTYSLSSTLTLSKADYEKHKVYACEVTHQGLSSPVTKSFNRGEC
heavy: not shown
notes: masked K91 fusion, uncleaved; also called n690; construct No 690
For B11, the response in assay [7] was half-maximal at 8.7 nM (EC50). In addition, in assay [4], the “EC50 before cleavage IL-2, HEK Blue IL-2 αβγ reporter assay” value was found to be 0.07 nM and the “EC50 ratio (BC/AC), HEK Blue IL-2 αβγ reporter assay” value was 1. Further, in assay [8], the “Binding recovery (BC/AC)” value turned out to be 20. Further, in the assay with His-tagged human CD47 [1], the “Binding before cleavage (BLI)” value is 1.2 nm. In addition, in assay [5], the “EC50 before cleavage IL-2, HEK Blue IL-2 βγ reporter assay” value is 0.12 nM and the “EC50 ratio (BC/AC), HEK Blue IL-2 βγ reporter assay” value worked out at 4.
